Data as given in article PMC12528898 (The Journal of Biological Chemistry, 2025).

T1: mNeon PPM1H (full-length PPM1H with mNeon inserted into loop 1 at position 125) (human, UniProt Q9ULR3 1-514)
T1 construct: PPM1H phosphatase, human, full length; mNeon inserted into loop 1 (residues 115-133) at position 125; the plasmid is pET15b His SUMO mNeon PPM1H; His-SUMO removed by Ulp1 before gel filtration; also called WT PPM1H; HisSUMO-mNeon PPM1H; not shown: mNeon, internal (loop 1, at position 125), kept
T1 sequence (looked up): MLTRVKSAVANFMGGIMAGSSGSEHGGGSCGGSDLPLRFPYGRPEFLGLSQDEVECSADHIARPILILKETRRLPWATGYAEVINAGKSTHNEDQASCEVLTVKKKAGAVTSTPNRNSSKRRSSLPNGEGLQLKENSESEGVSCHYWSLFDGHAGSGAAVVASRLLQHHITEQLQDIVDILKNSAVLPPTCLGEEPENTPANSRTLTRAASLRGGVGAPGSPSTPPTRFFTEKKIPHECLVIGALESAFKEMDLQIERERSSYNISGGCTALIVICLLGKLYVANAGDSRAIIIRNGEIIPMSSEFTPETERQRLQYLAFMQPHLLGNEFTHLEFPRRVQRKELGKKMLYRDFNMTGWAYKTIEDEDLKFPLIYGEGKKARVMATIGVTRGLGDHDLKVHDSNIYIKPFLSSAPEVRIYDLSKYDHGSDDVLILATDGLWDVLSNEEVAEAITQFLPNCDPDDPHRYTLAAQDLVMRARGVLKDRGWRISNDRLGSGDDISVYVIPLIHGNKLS

B1: Rab12 Q101L (full length, nonprenylated, nonphosphorylated) (natural protein, human, UniProt Q6IQ22-2 1-244, looked up)
chain: MDPGAALQRRAGGGGGLGAGSPALSGGQGRRRKQPPRPADFKLQVIIIGSRGVGKTSLMERFTDDTFCEACKSTVGVDFKIKTVELRGKKIRLQIWDTAGLERFNSITSAYYRSAKGIILVYDITKKETFDDLPKWMKMIDKYASEDAELLLVGNKLDCETDREITRQQGEKFAQQITGMRFCEASAKDNFNVDEIFLKLVDDILKKMPLDILRNELSNSILSLQPEPEIPPELPPPRPHVRCC
notes: also called His SUMO Rab12 (full length) Q101L; source: E. coli, purified (TALON, Ulp1 cleavage, Superdex 200), 20 μM GTP in all buffers
B2: His Rab8A Q67L (full length, nonprenylated, nonphosphorylated) (natural protein, human, UniProt P61006 1-207, looked up)
chain: MAKTYDYLFKLLLIGDSGVGKTCVLFRFSEDAFNSTFISTIGIDFKIRTIELDGKRIKLQIWDTAGLERFRTITTAYYRGAMGIMLVYDITNEKSFDNIRNWIRNIEEHASADVEKMILGNKCDVNDKRQVSKERGEKLALDYGIKFMETSAKANINVENAFFTLARDIKAKMDKKLEGNSPQGSNQGVKITPDQQKRSSFFRCVLL
notes: subcloned from HA-Rab8A (DU35414) into pET14b; also called Rab8A-6XHis; unphosphorylated Rab8A; source: E. coli, purified (TALON, Superdex 75), 20 μM GTP in all buffers
B3: Thiophosphorylated His Rab8A Q67L (natural protein, human, UniProt P61006 1-207, looked up)
chain: B2 chain
modifications: thiophosphorylated with ATPγS by MST3 kinase (fully modified by PhosTag gel); the residue is not given
notes: Rab8A GTPase, full length, Q67L, thiophosphorylated form of m5; also called Thio-pRab8A (Q67L); thiophosphorylated Rab8A; source: E. coli, purified (TALON, Superdex 75); thiophosphorylated in vitro overnight at 4 °C by His-MST3 kinase with ATPγS
B4: Rab10 Q68L (full length, nonprenylated, nonphosphorylated) (natural protein, human, UniProt P61026 1-200, looked up)
chain: MAKKTYDLLFKLLLIGDSGVGKTCVLFRFSDDAFNTTFISTIGIDFKIKTVELQGKKIKLQIWDTAGLERFHTITTSYYRGAMGIMLVYDITNGKSFENISKWLRNIDEHANEDVERMLLGNKCDMDDKRVVPKGKGEQIAREHGIRFFETSAKANINIEKAFLTLAEDILRKTPVKEPNSENVDISSGGGVTGWKSKCC
notes: also called His SUMO Rab10 (full length) Q68L; untagged Rab10 Q68L; source: E. coli, purified (TALON, Ulp1 cleavage, Superdex 200), 20 μM GTP in all buffers

Target: T1, mNeon PPM1H (full-length PPM1H with …)
Test: MST; unlabelled Rab protein (16 serial dilutions) titrated against 100 nM fluorescent mNeon PPM1H variant; 30 min in the dark; Monolith NT.115; three independent measurements with different protein preparations
Conditions: both partners purified

Kd | Binder
7400 nM | B1
1400 nM | B2
1000 nM | B3
1300 nM | B4
